The source of these data is patent US12377158.

The target of experiment [1] is Native human Albumin Protein (human) (UniProt P02768). Put plainly: SPR (Nicoya OpenSPR), human albumin immobilised on COOH chip, mouse klotho as analyte at 0-40 nM.
The target of experiment [2] is canine albumins (canine) (UniProt P49822). Put plainly: method not stated.

Positions of bridges follow the written chain, without caps; N, C: chain ends. No end group written: not given here.

What is called Kd is a measure of binding affinity in units of concentration. Low readings indicate higher affinity, high ones lower affinity. As usually defined, the koff is the first-order rate constant of dissociation. A low value points to slow dissociation. As a reminder, the kon is the rate constant with which the complex forms. A low value points to slow association.

UniProt P49822, sequence (P49822 25-608 limits assumed): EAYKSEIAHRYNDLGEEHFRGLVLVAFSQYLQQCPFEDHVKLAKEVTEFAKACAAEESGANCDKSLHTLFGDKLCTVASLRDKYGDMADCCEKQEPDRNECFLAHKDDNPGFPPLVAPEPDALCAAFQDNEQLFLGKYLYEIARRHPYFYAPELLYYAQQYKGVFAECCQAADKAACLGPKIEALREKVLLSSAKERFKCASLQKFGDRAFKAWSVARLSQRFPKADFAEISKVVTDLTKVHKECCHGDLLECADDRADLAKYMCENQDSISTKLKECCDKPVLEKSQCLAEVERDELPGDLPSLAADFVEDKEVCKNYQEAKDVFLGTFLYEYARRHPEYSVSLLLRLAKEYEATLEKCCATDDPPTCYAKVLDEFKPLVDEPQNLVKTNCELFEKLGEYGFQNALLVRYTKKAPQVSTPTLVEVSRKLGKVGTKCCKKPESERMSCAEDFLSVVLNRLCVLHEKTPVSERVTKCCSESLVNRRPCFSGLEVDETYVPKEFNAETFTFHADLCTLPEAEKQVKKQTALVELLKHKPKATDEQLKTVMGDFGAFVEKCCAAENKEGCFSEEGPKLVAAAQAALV

Regarding “Mouse klotho protein (from UniProt O35082 35-982)”, in experiment [1], the Kd was 7.94 nM, the koff is 0.00681 s⁻¹ and the kon came out at 858000 M⁻¹ s⁻¹.

B1: alpha Klotho with the albumin binding construct … (SEQ ID NO: 4) attached to the terminal end (peptide, not shown: small tags and cut ends)
peptide: GGSGGSGGSGGRLIEDICLPRWGCLWEDD
modifications: disulfide 18-24 (inferred); also: fused to alpha Klotho, terminus not given here
On to B1, for which the Kd in experiment [2] was less than 19 nM.
